One may read the EC50 as the concentration that produces a half-maximal response.

Experimental findings from patent US20190153112A1 (IMMUTEP S A S, published 2019) are described below.

The target of test [1] is IMP321 (recombinant soluble human LAG-3Ig fusion protein) (human) (UniProt P18627). Put plainly: FACS, LAG-3Ig-Alexa 488 (1 µg/ml) with antibody 0 ng/ml (no-antibody value), bound to Raji (MHC class II+) cells. In general terms: Flow cytometry measures light scatter and fluorescence of single cells or particles in a stream.
Test [2] concerns the target human LAG-3 protein (Lymphocyte activation gene-3) on the cell surface (human) (UniProt P18627). As to the kind of experiment: flow cytometry on CD4+ cells of SEB-stimulated PBMCs (Donor 1); antibody 0.4 ng/ml.
Test [3] has as its target IMP321 (recombinant soluble human LAG-3Ig fusion protein) (human) (UniProt P18627). Put plainly: FACS, LAG-3Ig-Alexa 488 (1 µg/ml) pre-incubated with antibody 3300 ng/ml, then bound to Raji (MHC class II+) cells.
The target in test [4] is human LAG-3 protein (Lymphocyte activation gene-3) on the cell surface (human) (UniProt P18627). As to the kind of experiment: flow cytometry on CD8+ cells of SEB-stimulated PBMCs (Donor 1); antibody 0.4 ng/ml.
Test [5] shares this target. As to the kind of experiment: flow cytometry on CD8+ cells of SEB-stimulated PBMCs (Donor 1); antibody 541 ng/ml.
The target is the same in test [6]. Put plainly: flow cytometry on CD4+ cells of SEB-stimulated PBMCs (Donor 1); antibody 2326 ng/ml.
Test [7] has as its target IMP321 (recombinant soluble human LAG-3Ig fusion protein) (human) (UniProt P18627). Put plainly: cell-based or functional assay.
Test [8] addresses human LAG-3 protein (Lymphocyte activation gene-3) on the cell surface (human) (UniProt P18627). As to the kind of experiment: flow cytometry on CD8+ cells of SEB-stimulated PBMCs (Donor 1); antibody 7 ng/ml.
Test [9] shares this target. Put plainly: flow cytometry on CD4+ cells of SEB-stimulated PBMCs (Donor 1); antibody 29 ng/ml.
Test [10] shares this target. Put plainly: flow cytometry on CD4+ cells of SEB-stimulated PBMCs (Donor 1); antibody 7 ng/ml.
For test [11] the target is unchanged. As to the kind of experiment: flow cytometry on CD8+ cells of SEB-stimulated PBMCs (Donor 1); antibody 0 ng/ml (no-antibody background).
For test [12] the target is unchanged. As to the kind of experiment: flow cytometry on CD4+ cells of SEB-stimulated PBMCs (Donor 1); antibody 1.6 ng/ml.
Test [13] has as its target IMP321 (recombinant soluble human LAG-3Ig fusion protein) (human) (UniProt P18627). Put plainly: FACS, LAG-3Ig-Alexa 488 (1 µg/ml) pre-incubated with antibody 990 ng/ml, then bound to Raji (MHC class II+) cells.
Test [14] deals with human LAG-3 protein (Lymphocyte activation gene-3) on the cell surface (human) (UniProt P18627). As to the kind of experiment: flow cytometry on LAG-3-transfected CHO cells; antibody 500 ng/ml.
The target is the same in test [15]. Put plainly: flow cytometry on CD8+ cells of SEB-stimulated PBMCs (Donor 1); antibody 126 ng/ml.
For test [16] the target is unchanged. As to the kind of experiment: flow cytometry on CD4+ cells of SEB-stimulated PBMCs (Donor 1); antibody 0 ng/ml (no-antibody background).
Test [17] has the same target. As to the kind of experiment: flow cytometry on CD8+ cells of SEB-stimulated PBMCs (Donor 1); antibody 2326 ng/ml.
For test [18], the target named is IMP321 (recombinant soluble human LAG-3Ig fusion protein) (human) (UniProt P18627). As to the kind of experiment: FACS, LAG-3Ig-Alexa 488 (1 µg/ml) pre-incubated with antibody 11000 ng/ml, then bound to Raji (MHC class II+) cells.
Test [19] addresses human LAG-3 protein (Lymphocyte activation gene-3) on the cell surface (human) (UniProt P18627). Put plainly: flow cytometry on CD4+ cells of SEB-stimulated PBMCs (Donor 1); antibody 541 ng/ml.
Test [20] shares this target. As to the kind of experiment: flow cytometry on CD8+ cells of SEB-stimulated PBMCs (Donor 1); antibody 10000 ng/ml.
Test [21] shares this target. Put plainly: flow cytometry on LAG-3-transfected CHO cells; antibody 0 ng/ml (no-antibody background).
Test [22] has the same target. As to the kind of experiment: flow cytometry on LAG-3-transfected CHO cells; antibody 10000 ng/ml.
Test [23] addresses IMP321 (recombinant soluble human LAG-3Ig fusion protein) (human) (UniProt P18627). As to the kind of experiment: FACS, LAG-3Ig-Alexa 488 (1 µg/ml) pre-incubated with antibody 89 ng/ml, then bound to Raji (MHC class II+) cells.
Test [24] has the same target. Put plainly: FACS, LAG-3Ig-Alexa 488 (1 µg/ml) pre-incubated with antibody 27 ng/ml, then bound to Raji (MHC class II+) cells.
The target in test [25] is human LAG-3 protein (Lymphocyte activation gene-3) on the cell surface (human) (UniProt P18627). As to the kind of experiment: flow cytometry on CD8+ cells of SEB-stimulated PBMCs (Donor 1); antibody 29 ng/ml.
In test [26] the target is IMP321 (recombinant soluble human LAG-3Ig fusion protein) (human) (UniProt P18627). Put plainly: FACS, LAG-3Ig-Alexa 488 (1 µg/ml) pre-incubated with antibody 297 ng/ml, then bound to Raji (MHC class II+) cells.
The target in test [27] is human LAG-3 protein (Lymphocyte activation gene-3) on the cell surface (human) (UniProt P18627). As to the kind of experiment: flow cytometry on CD4+ cells of SEB-stimulated PBMCs (Donor 1); antibody 10000 ng/ml.
Test [28] shares this target. Put plainly: flow cytometry on CD8+ cells of SEB-stimulated PBMCs (Donor 1); antibody 1.6 ng/ml.
Test [29] has the same target. As to the kind of experiment: flow cytometry on LAG-3-transfected CHO cells; antibody 2000 ng/ml.
For test [30] the target is unchanged. As to the kind of experiment: flow cytometry on CD4+ cells of SEB-stimulated PBMCs (Donor 1); antibody 126 ng/ml.
Test [31] deals with T1, human LAG-3 protein (Lymphocyte activation gene-3) on the cell surface (human, UniProt P18627 23-525).
T1 construct: also called CD223; CHO LAG-3+
T1 sequence: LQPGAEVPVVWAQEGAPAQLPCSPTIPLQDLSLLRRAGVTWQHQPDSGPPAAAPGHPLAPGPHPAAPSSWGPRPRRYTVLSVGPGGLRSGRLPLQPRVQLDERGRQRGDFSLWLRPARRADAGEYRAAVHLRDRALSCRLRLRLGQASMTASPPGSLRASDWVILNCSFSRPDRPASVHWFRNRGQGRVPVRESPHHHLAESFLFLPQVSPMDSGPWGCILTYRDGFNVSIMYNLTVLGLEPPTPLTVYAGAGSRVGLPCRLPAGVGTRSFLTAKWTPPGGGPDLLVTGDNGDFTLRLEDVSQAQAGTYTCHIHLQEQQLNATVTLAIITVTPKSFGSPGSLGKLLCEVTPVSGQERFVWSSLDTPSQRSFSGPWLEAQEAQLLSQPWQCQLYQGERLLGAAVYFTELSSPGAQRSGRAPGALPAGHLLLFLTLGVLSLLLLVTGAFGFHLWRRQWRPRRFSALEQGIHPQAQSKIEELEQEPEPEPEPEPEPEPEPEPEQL
As to the kind of experiment: flow cytometry on CD8+ cells of SEB-stimulated PBMCs, mean of three donors. As for the experimental part: (§1) LAG-3⁺-transfected CHO cells, or SEB-stimulated PBMCs from a healthy donor were incubated with anti-LAG-3 monoclonal antibody, or an isotype control (mIgG1) for 30 minutes in PBS, BSA 0.5%, Azide 0.1% at 4° C. […] The secondary antibody was washed away, and the CHO cells were directly analyzed by flow cytometry. The PBMCs were phenotyped using CD4-PE-Cy7 and CD8-APC-Cy7.

The target of test [32] is T1, human LAG-3 protein (Lymphocyte …). As to the kind of experiment: flow cytometry on CD4+ cells of SEB-stimulated PBMCs, three donors; reference 17B4. As for the experimental part: as §1
The target is the same in test [33]. As to the kind of experiment: flow cytometry on CD4+ cells of SEB-stimulated PBMCs (Donor 1), from Table 13. As for the experimental part:
as §1

For test [34] the target is unchanged. As to the kind of experiment: flow cytometry on CD8+ cells of SEB-stimulated PBMCs, three donors; reference 17B4. As for the experimental part: as §1
The target in test [35] is T2, IMP321 (recombinant soluble human LAG-3Ig fusion protein) (human, UniProt P18627 23-450).
T2 sequence (looked up): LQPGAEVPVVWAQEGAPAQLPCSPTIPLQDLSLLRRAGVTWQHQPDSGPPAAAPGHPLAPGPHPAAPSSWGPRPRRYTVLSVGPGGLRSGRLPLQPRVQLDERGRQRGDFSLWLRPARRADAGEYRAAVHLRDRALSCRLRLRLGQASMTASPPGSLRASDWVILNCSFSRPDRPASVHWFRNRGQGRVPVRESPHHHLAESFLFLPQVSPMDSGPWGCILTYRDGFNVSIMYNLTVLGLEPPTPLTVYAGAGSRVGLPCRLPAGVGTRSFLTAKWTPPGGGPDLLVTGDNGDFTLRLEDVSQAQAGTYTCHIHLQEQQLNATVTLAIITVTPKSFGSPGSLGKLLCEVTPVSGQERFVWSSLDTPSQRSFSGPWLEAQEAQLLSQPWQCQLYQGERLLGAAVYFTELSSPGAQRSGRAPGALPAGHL
Put plainly: cell-based or functional assay.

The target of test [36] is T1, human LAG-3 protein (Lymphocyte …). As to the kind of experiment: flow cytometry on CD4+ cells of SEB-stimulated PBMCs, mean of three donors. As for the experimental part:
as §1

For test [37] the target is unchanged. As to the kind of experiment: flow cytometry on LAG-3-expressing CHO cells, four independent experiments; reference 17B4. As for the experimental part:
as §1

As for isotype control antibody (mIgG1), the MFI of sLAG-3Ig-Alexa 488 in test [1] was 284 MFI; in test [3] it was 359 MFI; in [13] it was 361 MFI; in test [18] it was 328 MFI; in test [23], 324 MFI; in test [24], 254 MFI. The MFI of sLAG-3Ig-Alexa 488 in test [26] worked out at 373 MFI. Further, the MFI came out at 106 MFI in [2]; 112 MFI in test [4]; 120 MFI in test [5]; 113 MFI in test [6]; 114 MFI in [8]; 108 MFI in test [9]. For the same molecule, the MFI in test [10] stood at 110 MFI; in [11], 112 MFI; in test [12], 127 MFI; in [14], 168 MFI; in test [15], 115 MFI; in test [16], 106 MFI. The MFI in [17] came out at 137 MFI; in test [19], 116 MFI; in [20] it was 140 MFI; in [21] it was 156 MFI; in [22], 440 MFI; in test [25] it was 110 MFI. In addition, the MFI in test [27] is 116 MFI; in test [28], 116 MFI; in test [29], 251 MFI; in test [30] it was 109 MFI. Besides, the [CCL4] in THP-1 monocytic cells supernatant; IMP321 20 ng/ml pre-incubated with antibody 2 ng/ml in [7] worked out at 2050 pg/mL. Moreover, the [CCL4] in THP-1 monocytic cells supernatant; IMP321 20 ng/ml pre-incubated with antibody 20 ng/ml in test [7] is 2140 pg/mL. Besides, the [CCL4] in THP-1 monocytic cells supernatant; IMP321 20 ng/ml pre-incubated with antibody 200 ng/ml in test [7] amounted to 2220 pg/mL. Besides, the [CCL4] in THP-1 monocytic cells supernatant; IMP321 20 ng/ml pre-incubated with antibody 2000 ng/ml in test [7] was determined as 2260 pg/mL. Further, the [CCL4] in THP-1 monocytic cells supernatant; IMP321 20 ng/ml pre-incubated with antibody 20000 ng/ml in [7] is 2900 pg/mL. Also, in test [7], the [CCL4] in THP-1 monocytic cells supernatant; IMP321 20 ng/ml, antibody 0 ng/ml (no-antibody value) was found to be 2110 pg/mL.

B1: mouse monoclonal anti-LAG-3 antibody 34F4 (antibody, V domains shown)
VH: QVTLKESGPGILQPSQTLSLTCSFSGFSLNTSGMGVGWIRQPSGKGLEWLTHIWWDDVKRYNPALKSRLTISKDTSSSQVFLKIASVDTADTATYYCARIEGDTYYDYYFDYWGQGVTLTVSS
VL: DIVMTQSHKLMSTSVGDGLSITCKASQDVSIAVVWYQQKPGQSPKLLIYSASFRYTGVPDRFTGSGSGTDFTFTISSVQAEDLAVYYCQQHYSIPWTFGGGTKLEIK
notes: Whole mouse monoclonal antibody from a hybridoma; mIgG1 was used as its isotype control
For B1, the EC50 in [31] was determined as 0.5 nM; in [33], 0.1 nM; in test [36], 0.2 nM. Besides, the “ratio of mean EC50 against 17B4” value in [32] was 3.8 times; in test [34] it was 2.5 times; in test [37] it was 1.6 times. For the same molecule, the “percentage of inhibition of CD8+ T cell proliferation; Donor #1, 34F4 1000 ng/ml neutralised with a 10-fold excess of IMP321” value in [35] was found to be 0%. The “percentage of inhibition of CD8+ T cell proliferation; Donor #2, 34F4 1000 ng/ml neutralised with a 10-fold excess of IMP321” value in test [35] was determined as 41%.
